Data published in paper PMC7589614.
pKd: −log10 of the molar value. Like-named read-outs stand apart in the source and are kept apart here.

What was measured:
[1] = target: AbnA-D2 (D2), his-tagged arabinase family protein (Geobacillus stearothermophilus T-6) (UniProt B3EYN2); assay: porous silicon RIFTS (EOT) biosensor; conditions: 5'-amino; Selection buffers listed (assay buffer and temperature not stated in material): AGR2 137 mM NaCl, 20 mM KCl, 10 mM Na2HPO4, 2 mM KH2PO4 pH 7.4; 6H7 50 mM …
[2] = target: AbnA-D2 (D2), his-tagged arabinase family protein (Geobacillus stearothermophilus T-6) (UniProt B3EYN2); conditions: 5'-amino; Selection buffers listed (assay buffer and temperature not stated in material): AGR2 137 mM NaCl, 20 mM KCl, 10 mM Na2HPO4, 2 mM KH2PO4 pH 7.4; 6H7 50 mM …; cited from earlier work

For “GCTATGGGTGGTCTGGTTGGGATTGGCCCCGGGAGCTGGC [anti-his tag aptamer 6H7]”, the pKd [1] is given as 4.54 and the pKd [2] is given as 5.34.
